Measured values reported in publication PMC4187121, “Flexible Enantioselectivity of Tryptophanase Attributable to Benzene Ring in Heterocyclic Moiety of D-Tryptophan” (Life : Open Access Journal, 2012).

How the values were obtained:
[1] = system: T1, N[C@@H](Cc1c[nH]c2ccccc12)C(=O)O; assay: L-tryptophan degradation by tryptophanase, kinetic and inhibition analysis (indole formation, Ehrlich reagent); format: biochemical, E. coli; conditions: other: L-tryptophan degradation, pH 8.3
T1 construct: purchased Sigma-Aldrich Co. (St. Louis, MO, USA)
Protocol: When tryptophanase degraded L-tryptophan, all reaction mixtures included 0.2 mM of pyridoxal 5′-phosphate and 0.23 μM of tryptophanase in 100 mM potassium phosphate buffer of pH 8.3. DAP concentrations were prepared to the required concentrations of 0, 0.6, 1.2, 1.9 or 3.1 M. L-tryptophan. The reaction mixture was prepared to a concentration of 98, 108, 128, 137, 147, 167, 196, 225, 245, 294, 343, 392, 490, 680 or 980μM for kinetic analyses. Reactions were performed at 37 °C for 30 min in a Dry Thermo Unit DTU-1B (Taitec, Tokyo, Japan). Although D-tryptophan in addition to L-tryptophan was also degraded into indole in the presence of DAP, an indole production amount from D-tryptophan was neglected at this reaction temperature and time because the catalytic efficiency for D-tryptophan was 0.3% of that for L-tryptophan. On the other hand, the reaction condition of D-tryptophan degradation differed in several ways from that of L-tryptophan degradation. Each concentration of pyridoxal 5′-phosphate and tryptophanase was 1.2 mM and 0.92μM, and additionally reaction temperature and time was 55 °C and 2 h, respectively. All the other reaction conditions were the same as in the L-tryptophan degradation.
The total volume of the reaction mixture was 2 mL per tube. The reaction was stopped by adding 2 mL of n-butanol, which was vigorously mixed and then immediately centrifuged at approximately 1,000 G for 10 min. After centrifugation, the reaction mixture was separated into two layers of butanol and aqueous solutions in which indole was equally distributed. The supernatant butanol layer was extracted to be mixed with an equal volume of Ehrlich reagent, then colored red at 60 °C for 30 min in Dry Thermo Unit. […] Tryptophanase activity was assayed in triplicate at the same substrate concentration and then averaged. Initial velocity was computed based on the averaged value.
(§1) Initial velocities were defined by indole that formed within 1 minute after 1 mg of tryptophanase was added. Then the reciprocal of (initial velocity/[E] (enzyme concentration)) (ordinate) versus the reciprocal of substrate concentration (abscissa) was drawn for each concentration of L- or D-tryptophan. These double-reciprocal plots were drawn based on the least squares method to calculate kinetic parameters. Kcatwas determined from the reciprocal of the intercepts of these double-reciprocal plots, and the Michaelis constant Km from substrate concentration at 1/v = 0 in the absence of inhibitor. In noncompetitive inhibition, two inhibition constants of Ki (=[E][I]/[EI], E: enzyme; I: inhibitor; EI: enzyme-inhibitor complex) and Ki' (=[ES][I]/[ESI], ES: enzyme-substrate complex; ESI: enzyme-substrate-inhibitor complex) were determined from the slopes and from the intercepts, respectively. In the mixed type inhibition, Ki and Ki' were determined from x and y coordinates of the fixed point in the second quadrant.

[2] = system: T2, N[C@H](Cc1c[nH]c2ccccc12)C(=O)O; assay: D-tryptophan degradation by tryptophanase in the presence of 3.1 M DAP, kinetic and inhibition analysis; format: biochemical, E. coli; conditions: other: 3.1 M DAP, 55 °C, pH 8.3
T2 construct: purchased Sigma-Aldrich Co. (St. Louis, MO, USA)
Protocol: When tryptophanase degraded L-tryptophan, all reaction mixtures included 0.2 mM of pyridoxal 5′-phosphate and 0.23 μM of tryptophanase in 100 mM potassium phosphate buffer of pH 8.3. DAP concentrations were prepared to the required concentrations of 0, 0.6, 1.2, 1.9 or 3.1 M. L-tryptophan. The reaction mixture was prepared to a concentration of 98, 108, 128, 137, 147, 167, 196, 225, 245, 294, 343, 392, 490, 680 or 980μM for kinetic analyses. Reactions were performed at 37 °C for 30 min in a Dry Thermo Unit DTU-1B (Taitec, Tokyo, Japan). […]
as §1, with “Then the reciprocal of (initial velocity/[E] (enzyme concentration)) (ordinate) versus the reciprocal of substrate concentration (abscissa) was drawn for each concentration of L- or D-tryptophan. These double-reciprocal plots were drawn based on the least squares method to calculate kinetic parameters.” left out

## tryptophanase (Escherichia coli K-12)
[1]; DAP 0 M
  Km: 300 µM
  kcat: 0.4 s⁻¹
  kcat/Km: 1300 M⁻¹ s⁻¹
[1]; DAP 0.6 M
  Km: 200 µM
  kcat: 0.18 s⁻¹
  kcat/Km: 900 M⁻¹ s⁻¹
[1]; DAP 1.2 M
  Km: 200 µM
  kcat: 0.15 s⁻¹
  kcat/Km: 800 M⁻¹ s⁻¹
[1]; DAP 1.9 M
  Km: 200 µM
  kcat: 0.11 s⁻¹
  kcat/Km: 600 M⁻¹ s⁻¹
[1]; DAP 3.1 M
  Km: 200 µM
  kcat: 0.07 s⁻¹
  kcat/Km: 400 M⁻¹ s⁻¹
[2]
  Km: 600 µM
  kcat: 0.07 s⁻¹
